2 substances from publication PMC12095075 can be followed below.

Broadly, the Kd is the constant that tells how readily two partners part at equilibrium. A lower Kd goes with higher affinity.

This data set concerns the target HIF2A N-terminal region (bHLH-PAS);BMAL1 N-terminal region (bHLH-PAS) (mouse;mouse) (UniProt P97481+Q9WTL8). As to the kind of experiment: SPR. The note with it: 1:1 fit, error is fit error, SPR: 20 mM MES pH 5.5, 300 mM NaCl, 0.05% Tween-20, 0.02% BSA, EMSA: 10 mM MES pH 6.0, 50 mM KCl, 1 mM DTT, 2.5% glycerol, 0.05% NP-40, 5 mM MgCl2, room …. On the technique in general: A gel shift assay detects complexes by their altered migration in electrophoresis.

Chain of HIF2A N-terminal region (bHLH-PAS);BMAL1 N-terminal region (bHLH-PAS) (mouse;mouse) (P97481 3-361, chain 1 of 2): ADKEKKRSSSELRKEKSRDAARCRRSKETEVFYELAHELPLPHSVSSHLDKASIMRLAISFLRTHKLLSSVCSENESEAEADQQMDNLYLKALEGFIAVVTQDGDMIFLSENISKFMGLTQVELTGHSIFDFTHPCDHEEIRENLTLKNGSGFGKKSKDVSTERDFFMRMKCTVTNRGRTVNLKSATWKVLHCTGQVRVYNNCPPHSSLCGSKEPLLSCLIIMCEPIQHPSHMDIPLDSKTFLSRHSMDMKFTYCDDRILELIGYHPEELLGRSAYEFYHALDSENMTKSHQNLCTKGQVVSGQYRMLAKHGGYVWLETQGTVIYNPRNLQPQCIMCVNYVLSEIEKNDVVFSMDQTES
Chain of HIF2A N-terminal region (bHLH-PAS);BMAL1 N-terminal region (bHLH-PAS) (mouse;mouse) (Q9WTL8 68-488, chain 2 of 2): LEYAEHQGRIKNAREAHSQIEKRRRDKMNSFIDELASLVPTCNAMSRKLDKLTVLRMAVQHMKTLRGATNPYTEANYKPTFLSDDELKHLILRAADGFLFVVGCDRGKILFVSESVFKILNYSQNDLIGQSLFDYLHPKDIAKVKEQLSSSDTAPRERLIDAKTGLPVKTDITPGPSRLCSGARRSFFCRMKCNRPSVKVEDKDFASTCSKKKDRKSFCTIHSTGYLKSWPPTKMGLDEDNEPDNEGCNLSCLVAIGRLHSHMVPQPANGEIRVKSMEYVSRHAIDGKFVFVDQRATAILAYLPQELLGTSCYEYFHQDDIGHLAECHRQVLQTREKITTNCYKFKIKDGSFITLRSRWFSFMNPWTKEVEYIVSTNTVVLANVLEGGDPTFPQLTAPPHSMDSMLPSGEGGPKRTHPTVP

22-bp E-box duplex, SPR: the Kd (ka 2.10e5 1/(M*s), kd 7.85e-4 1/s) worked out at 3.74 nM.
Consider 22-bp HRE duplex, SPR, for which the Kd (ka 1.75e5 1/(M*s), kd 8.45e-4 1/s) is 4.84 nM.
